Assay [1] deals with T1, full-length BiP (BiP FL, residues 28–654), His6-tag removed (human, UniProt P11021 28-654). In words: MST; 10 mM ATP.
For assay [2], the target named is T1, full-length BiP (BiP FL, residues …). In words: MST; 10 mM AMPPNP.
For assay [3] the target is unchanged. Briefly: MST; no nucleotide.
Assay [4] shares this target. In words: MST; 10 mM ADP.
For assay [5], the target named is BiP ATPase domain (residues 28–405), His6-tag removed (human, UniProt P11021 28-405). In words: MST.
Sequence of BiP ATPase domain (residues 28–405), His6-tag removed (P11021 28-405): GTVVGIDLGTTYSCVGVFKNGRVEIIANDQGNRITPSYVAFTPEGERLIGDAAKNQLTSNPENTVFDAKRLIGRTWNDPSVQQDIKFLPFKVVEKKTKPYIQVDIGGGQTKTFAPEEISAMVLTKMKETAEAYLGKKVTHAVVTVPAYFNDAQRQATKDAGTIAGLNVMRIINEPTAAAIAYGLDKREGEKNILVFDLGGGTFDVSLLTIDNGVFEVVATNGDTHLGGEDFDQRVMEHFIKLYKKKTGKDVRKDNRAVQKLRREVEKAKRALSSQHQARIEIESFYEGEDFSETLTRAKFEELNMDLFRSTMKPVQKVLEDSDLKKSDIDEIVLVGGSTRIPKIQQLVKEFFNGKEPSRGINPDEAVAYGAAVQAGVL

T1 sequence (P11021 28-654): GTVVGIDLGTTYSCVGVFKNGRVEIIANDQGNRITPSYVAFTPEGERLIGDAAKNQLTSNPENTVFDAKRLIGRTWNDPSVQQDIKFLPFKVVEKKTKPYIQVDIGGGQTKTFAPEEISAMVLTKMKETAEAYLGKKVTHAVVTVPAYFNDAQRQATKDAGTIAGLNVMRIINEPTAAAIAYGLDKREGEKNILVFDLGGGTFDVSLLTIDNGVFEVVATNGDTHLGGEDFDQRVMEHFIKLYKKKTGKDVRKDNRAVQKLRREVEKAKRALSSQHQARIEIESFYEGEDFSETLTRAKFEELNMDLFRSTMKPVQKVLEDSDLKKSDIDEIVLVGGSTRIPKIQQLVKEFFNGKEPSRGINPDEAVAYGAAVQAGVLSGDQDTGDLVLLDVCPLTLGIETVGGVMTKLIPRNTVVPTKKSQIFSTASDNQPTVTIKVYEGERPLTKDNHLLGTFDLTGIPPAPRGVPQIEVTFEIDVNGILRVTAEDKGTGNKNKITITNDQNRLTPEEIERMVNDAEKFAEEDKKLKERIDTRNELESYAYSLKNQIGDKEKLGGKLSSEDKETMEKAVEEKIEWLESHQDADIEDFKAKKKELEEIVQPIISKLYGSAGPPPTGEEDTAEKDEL

B1: Perk luminal domain, complete (region I–V, residues 54–509) (domain or fragment)
chain: TSATRVPAAGAVAAAEVTVEDAEALPAAAGEQEPRGPEPDDETELRPRGRSLVIISTLDGRIAALDPENHGKKQWDLDVGSGSLVSSSLSKPEVFGNKMIIPSLDGALFQWDQDRESMETVPFTVESLLESSYKFGDDVVLVGGKSLTTYGLSAYSGKVRYICSALGCRQWDSDEMEQEEDILLLQRTQKTVRAVGPRSGNEKWNFSVGHFELRYIPDMETRAGFIESTFKPNENTEESKIISDVEEQEAAIMDIVIKVSVADWKVMAFSKKGGHLEWEYQFCTPIASAWLLKDGKVIPISLFDDTSYTSNDDVLEDEEDIVEAARGATENSVYLGMYRGQLYLQSSVRISEKFPSSPKALESVTNENAIIPLPTIKWKPLIHSPSRTPVLVGSDEFDKCLSNDKFSHEEYSNGALSILQYPYDNGYYLPYYKRERNKRSTQITVRFLDNPHYNKN
Usually Kd stands for the equilibrium constant for the complex coming apart. In the case of B1, the dissociation constant (Kd) is 830 nM in assay [1], 850 nM in assay [2], 1340 nM in assay [3] and 1370 nM in assay [4].

B2: Perk luminal domain region II–V (residues 105–509) (domain or fragment)
chain: LVIISTLDGRIAALDPENHGKKQWDLDVGSGSLVSSSLSKPEVFGNKMIIPSLDGALFQWDQDRESMETVPFTVESLLESSYKFGDDVVLVGGKSLTTYGLSAYSGKVRYICSALGCRQWDSDEMEQEEDILLLQRTQKTVRAVGPRSGNEKWNFSVGHFELRYIPDMETRAGFIESTFKPNENTEESKIISDVEEQEAAIMDIVIKVSVADWKVMAFSKKGGHLEWEYQFCTPIASAWLLKDGKVIPISLFDDTSYTSNDDVLEDEEDIVEAARGATENSVYLGMYRGQLYLQSSVRISEKFPSSPKALESVTNENAIIPLPTIKWKPLIHSPSRTPVLVGSDEFDKCLSNDKFSHEEYSNGALSILQYPYDNGYYLPYYKRERNKRSTQITVRFLDNPHYNKN
Regarding B2, the affinity in assay [5], expressed as Kd, was 2690 nM.

B3: Ire1 luminal domain region I–IV (residues 24–390) (domain or fragment)
chain: STVTLPETLLFVSTLDGSLHAVSKRTGSIKWTLKEDPVLQVPTHVEEPAFLPDPNDGSLYTLGSKNNEGLTKLPFTIPELVQASPCRSSDGILYMGKKQDIWYVIDLLTGEKQQTLSSAFADSLCPSTSLLYLGRTEYTITMYDTKTRELRWNATYFDYAASLPEDDVDYKMSHFVSNGDGLVVTVDSESGDVLWIQNYASPVVAFYVWQREGLRKVMHINVAVETLRYLTFMSGEVGRITKWKYPFPKETEAKSKLTPTLYVGKYSTSLYASPSMVHEGVAVVPRGSTLPLLEGPQTDGVTIGDKGECVITPSTDVKFDPGLKSKNKLNYLRNYWLLIGHHETPLSASTKMLERFPNNLPKHRENV
In assay [5], B3 yielded a Kd of 1860 nM.

B4: Ire1 luminal domain, complete (region I–V, residues 24–440) (domain or fragment)
chain: STVTLPETLLFVSTLDGSLHAVSKRTGSIKWTLKEDPVLQVPTHVEEPAFLPDPNDGSLYTLGSKNNEGLTKLPFTIPELVQASPCRSSDGILYMGKKQDIWYVIDLLTGEKQQTLSSAFADSLCPSTSLLYLGRTEYTITMYDTKTRELRWNATYFDYAASLPEDDVDYKMSHFVSNGDGLVVTVDSESGDVLWIQNYASPVVAFYVWQREGLRKVMHINVAVETLRYLTFMSGEVGRITKWKYPFPKETEAKSKLTPTLYVGKYSTSLYASPSMVHEGVAVVPRGSTLPLLEGPQTDGVTIGDKGECVITPSTDVKFDPGLKSKNKLNYLRNYWLLIGHHETPLSASTKMLERFPNNLPKHRENVIPADSEKKSFEEVINLVDQTSENAPTTVSRDVEEKPAHAPARPEAPVDSM
Consider B4, for which the Kd in assay [1] was 1090 nM; in assay [2] it was 1140 nM; in assay [3], 1920 nM; in assay [4], 1200 nM.

B5: Ire1 luminal domain region II–IV (residues 32–390) (domain or fragment)
chain: LLFVSTLDGSLHAVSKRTGSIKWTLKEDPVLQVPTHVEEPAFLPDPNDGSLYTLGSKNNEGLTKLPFTIPELVQASPCRSSDGILYMGKKQDIWYVIDLLTGEKQQTLSSAFADSLCPSTSLLYLGRTEYTITMYDTKTRELRWNATYFDYAASLPEDDVDYKMSHFVSNGDGLVVTVDSESGDVLWIQNYASPVVAFYVWQREGLRKVMHINVAVETLRYLTFMSGEVGRITKWKYPFPKETEAKSKLTPTLYVGKYSTSLYASPSMVHEGVAVVPRGSTLPLLEGPQTDGVTIGDKGECVITPSTDVKFDPGLKSKNKLNYLRNYWLLIGHHETPLSASTKMLERFPNNLPKHRENV
The molecule B5 came in with an equilibrium dissociation constant (Kd) in assay [5] of 1550 nM.

B6: Perk luminal domain region II–IV (printed residues 54–403) (domain or fragment)
chain: LVIISTLDGRIAALDPENHGKKQWDLDVGSGSLVSSSLSKPEVFGNKMIIPSLDGALFQWDQDRESMETVPFTVESLLESSYKFGDDVVLVGGKSLTTYGLSAYSGKVRYICSALGCRQWDSDEMEQEEDILLLQRTQKTVRAVGPRSGNEKWNFSVGHFELRYIPDMETRAGFIESTFKPNENTEESKIISDVEEQEAAIMDIVIKVSVADWKVMAFSKKGGHLEWEYQFCTPIASAWLLKDGKVIPISLFDDTSYTSNDDVLEDEEDIVEAARGATENSVYLGMYRGQLYLQSSVRI
In assay [5], B6 came in with an equilibrium dissociation constant (Kd) of 2280 nM.

B7: Ire1 luminal domain region II–V (residues 32–440) (domain or fragment)
chain: LLFVSTLDGSLHAVSKRTGSIKWTLKEDPVLQVPTHVEEPAFLPDPNDGSLYTLGSKNNEGLTKLPFTIPELVQASPCRSSDGILYMGKKQDIWYVIDLLTGEKQQTLSSAFADSLCPSTSLLYLGRTEYTITMYDTKTRELRWNATYFDYAASLPEDDVDYKMSHFVSNGDGLVVTVDSESGDVLWIQNYASPVVAFYVWQREGLRKVMHINVAVETLRYLTFMSGEVGRITKWKYPFPKETEAKSKLTPTLYVGKYSTSLYASPSMVHEGVAVVPRGSTLPLLEGPQTDGVTIGDKGECVITPSTDVKFDPGLKSKNKLNYLRNYWLLIGHHETPLSASTKMLERFPNNLPKHRENVIPADSEKKSFEEVINLVDQTSENAPTTVSRDVEEKPAHAPARPEAPVDSM
The molecule B7 gave a Kd in assay [5] of 2020 nM.

B8: Perk luminal domain region I–IV (residues 54–403) (domain or fragment)
chain: TSATRVPAAGAVAAAEVTVEDAEALPAAAGEQEPRGPEPDDETELRPRGRSLVIISTLDGRIAALDPENHGKKQWDLDVGSGSLVSSSLSKPEVFGNKMIIPSLDGALFQWDQDRESMETVPFTVESLLESSYKFGDDVVLVGGKSLTTYGLSAYSGKVRYICSALGCRQWDSDEMEQEEDILLLQRTQKTVRAVGPRSGNEKWNFSVGHFELRYIPDMETRAGFIESTFKPNENTEESKIISDVEEQEAAIMDIVIKVSVADWKVMAFSKKGGHLEWEYQFCTPIASAWLLKDGKVIPISLFDDTSYTSNDDVLEDEEDIVEAARGATENSVYLGMYRGQLYLQSSVRI
B8 displayed a dissociation constant Kd in assay [5] of 2350 nM.

These data come from PMC4337721 (2015).
